Assays:
Experiment in all cases: pulldown
Conditions in all cases: sense/antisense normalized AUC more than 2-fold
[1] = biological target: FLG2 (Filaggrin-2) (Homo sapiens) (UniProt Q5D862)
[2] = biological target: T1, SFPQ (splicing factor, proline- and glutamine-rich) (Homo sapiens) (UniProt P23246)
T1 sequence: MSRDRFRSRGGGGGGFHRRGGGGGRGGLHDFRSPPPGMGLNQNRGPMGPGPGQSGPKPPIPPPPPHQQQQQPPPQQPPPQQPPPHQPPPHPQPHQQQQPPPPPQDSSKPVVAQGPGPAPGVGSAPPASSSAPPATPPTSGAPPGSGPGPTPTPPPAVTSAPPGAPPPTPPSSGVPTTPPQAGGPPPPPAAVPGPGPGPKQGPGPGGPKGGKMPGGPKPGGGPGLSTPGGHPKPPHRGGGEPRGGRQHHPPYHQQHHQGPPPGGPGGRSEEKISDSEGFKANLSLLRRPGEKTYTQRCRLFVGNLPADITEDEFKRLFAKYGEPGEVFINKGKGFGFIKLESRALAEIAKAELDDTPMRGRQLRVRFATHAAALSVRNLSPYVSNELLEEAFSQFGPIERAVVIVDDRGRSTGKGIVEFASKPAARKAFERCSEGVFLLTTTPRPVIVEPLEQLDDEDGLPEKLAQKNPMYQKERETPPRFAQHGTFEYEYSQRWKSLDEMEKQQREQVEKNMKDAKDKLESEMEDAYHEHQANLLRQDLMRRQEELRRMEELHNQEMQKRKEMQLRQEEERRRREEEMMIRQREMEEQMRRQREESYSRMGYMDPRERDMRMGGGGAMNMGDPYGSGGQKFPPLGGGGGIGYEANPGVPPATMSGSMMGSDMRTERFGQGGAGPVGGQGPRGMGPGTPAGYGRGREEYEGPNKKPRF

[3] = biological target: ACLY (ATP-citrate synthase) (Homo sapiens) (UniProt P53396)
ACLY (ATP-citrate synthase) (Homo sapiens), sequence (P53396 whole entry): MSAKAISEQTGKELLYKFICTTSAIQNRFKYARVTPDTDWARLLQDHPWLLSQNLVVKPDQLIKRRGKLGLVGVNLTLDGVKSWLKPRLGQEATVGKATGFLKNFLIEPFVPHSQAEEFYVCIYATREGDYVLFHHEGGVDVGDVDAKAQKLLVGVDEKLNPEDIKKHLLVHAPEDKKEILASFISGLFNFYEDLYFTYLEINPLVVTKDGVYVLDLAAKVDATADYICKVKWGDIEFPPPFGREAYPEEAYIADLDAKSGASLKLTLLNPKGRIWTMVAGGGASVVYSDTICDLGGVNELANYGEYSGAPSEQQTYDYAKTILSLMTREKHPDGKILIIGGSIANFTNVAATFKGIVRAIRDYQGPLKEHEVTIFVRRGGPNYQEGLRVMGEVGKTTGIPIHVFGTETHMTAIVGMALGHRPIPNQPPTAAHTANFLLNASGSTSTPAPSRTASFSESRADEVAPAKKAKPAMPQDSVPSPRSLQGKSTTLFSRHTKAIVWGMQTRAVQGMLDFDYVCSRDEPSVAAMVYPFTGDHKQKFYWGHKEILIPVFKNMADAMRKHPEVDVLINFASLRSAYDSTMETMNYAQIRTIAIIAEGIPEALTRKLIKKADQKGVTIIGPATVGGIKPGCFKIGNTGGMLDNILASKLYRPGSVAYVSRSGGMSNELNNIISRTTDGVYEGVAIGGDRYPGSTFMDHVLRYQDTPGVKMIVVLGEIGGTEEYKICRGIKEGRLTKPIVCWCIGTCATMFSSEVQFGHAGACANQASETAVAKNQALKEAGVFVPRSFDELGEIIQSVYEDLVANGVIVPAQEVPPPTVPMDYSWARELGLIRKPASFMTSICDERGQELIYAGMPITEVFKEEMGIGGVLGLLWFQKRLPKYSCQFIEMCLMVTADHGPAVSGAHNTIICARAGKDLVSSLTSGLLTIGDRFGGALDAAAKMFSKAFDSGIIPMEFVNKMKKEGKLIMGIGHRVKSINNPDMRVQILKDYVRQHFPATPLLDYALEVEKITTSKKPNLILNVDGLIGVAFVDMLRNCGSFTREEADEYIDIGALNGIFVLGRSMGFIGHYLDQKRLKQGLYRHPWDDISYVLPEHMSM

Measured: binding signal (fraction of sense)

FLG2 (Filaggrin-2) (Homo sapiens), sequence (Q5D862 whole entry): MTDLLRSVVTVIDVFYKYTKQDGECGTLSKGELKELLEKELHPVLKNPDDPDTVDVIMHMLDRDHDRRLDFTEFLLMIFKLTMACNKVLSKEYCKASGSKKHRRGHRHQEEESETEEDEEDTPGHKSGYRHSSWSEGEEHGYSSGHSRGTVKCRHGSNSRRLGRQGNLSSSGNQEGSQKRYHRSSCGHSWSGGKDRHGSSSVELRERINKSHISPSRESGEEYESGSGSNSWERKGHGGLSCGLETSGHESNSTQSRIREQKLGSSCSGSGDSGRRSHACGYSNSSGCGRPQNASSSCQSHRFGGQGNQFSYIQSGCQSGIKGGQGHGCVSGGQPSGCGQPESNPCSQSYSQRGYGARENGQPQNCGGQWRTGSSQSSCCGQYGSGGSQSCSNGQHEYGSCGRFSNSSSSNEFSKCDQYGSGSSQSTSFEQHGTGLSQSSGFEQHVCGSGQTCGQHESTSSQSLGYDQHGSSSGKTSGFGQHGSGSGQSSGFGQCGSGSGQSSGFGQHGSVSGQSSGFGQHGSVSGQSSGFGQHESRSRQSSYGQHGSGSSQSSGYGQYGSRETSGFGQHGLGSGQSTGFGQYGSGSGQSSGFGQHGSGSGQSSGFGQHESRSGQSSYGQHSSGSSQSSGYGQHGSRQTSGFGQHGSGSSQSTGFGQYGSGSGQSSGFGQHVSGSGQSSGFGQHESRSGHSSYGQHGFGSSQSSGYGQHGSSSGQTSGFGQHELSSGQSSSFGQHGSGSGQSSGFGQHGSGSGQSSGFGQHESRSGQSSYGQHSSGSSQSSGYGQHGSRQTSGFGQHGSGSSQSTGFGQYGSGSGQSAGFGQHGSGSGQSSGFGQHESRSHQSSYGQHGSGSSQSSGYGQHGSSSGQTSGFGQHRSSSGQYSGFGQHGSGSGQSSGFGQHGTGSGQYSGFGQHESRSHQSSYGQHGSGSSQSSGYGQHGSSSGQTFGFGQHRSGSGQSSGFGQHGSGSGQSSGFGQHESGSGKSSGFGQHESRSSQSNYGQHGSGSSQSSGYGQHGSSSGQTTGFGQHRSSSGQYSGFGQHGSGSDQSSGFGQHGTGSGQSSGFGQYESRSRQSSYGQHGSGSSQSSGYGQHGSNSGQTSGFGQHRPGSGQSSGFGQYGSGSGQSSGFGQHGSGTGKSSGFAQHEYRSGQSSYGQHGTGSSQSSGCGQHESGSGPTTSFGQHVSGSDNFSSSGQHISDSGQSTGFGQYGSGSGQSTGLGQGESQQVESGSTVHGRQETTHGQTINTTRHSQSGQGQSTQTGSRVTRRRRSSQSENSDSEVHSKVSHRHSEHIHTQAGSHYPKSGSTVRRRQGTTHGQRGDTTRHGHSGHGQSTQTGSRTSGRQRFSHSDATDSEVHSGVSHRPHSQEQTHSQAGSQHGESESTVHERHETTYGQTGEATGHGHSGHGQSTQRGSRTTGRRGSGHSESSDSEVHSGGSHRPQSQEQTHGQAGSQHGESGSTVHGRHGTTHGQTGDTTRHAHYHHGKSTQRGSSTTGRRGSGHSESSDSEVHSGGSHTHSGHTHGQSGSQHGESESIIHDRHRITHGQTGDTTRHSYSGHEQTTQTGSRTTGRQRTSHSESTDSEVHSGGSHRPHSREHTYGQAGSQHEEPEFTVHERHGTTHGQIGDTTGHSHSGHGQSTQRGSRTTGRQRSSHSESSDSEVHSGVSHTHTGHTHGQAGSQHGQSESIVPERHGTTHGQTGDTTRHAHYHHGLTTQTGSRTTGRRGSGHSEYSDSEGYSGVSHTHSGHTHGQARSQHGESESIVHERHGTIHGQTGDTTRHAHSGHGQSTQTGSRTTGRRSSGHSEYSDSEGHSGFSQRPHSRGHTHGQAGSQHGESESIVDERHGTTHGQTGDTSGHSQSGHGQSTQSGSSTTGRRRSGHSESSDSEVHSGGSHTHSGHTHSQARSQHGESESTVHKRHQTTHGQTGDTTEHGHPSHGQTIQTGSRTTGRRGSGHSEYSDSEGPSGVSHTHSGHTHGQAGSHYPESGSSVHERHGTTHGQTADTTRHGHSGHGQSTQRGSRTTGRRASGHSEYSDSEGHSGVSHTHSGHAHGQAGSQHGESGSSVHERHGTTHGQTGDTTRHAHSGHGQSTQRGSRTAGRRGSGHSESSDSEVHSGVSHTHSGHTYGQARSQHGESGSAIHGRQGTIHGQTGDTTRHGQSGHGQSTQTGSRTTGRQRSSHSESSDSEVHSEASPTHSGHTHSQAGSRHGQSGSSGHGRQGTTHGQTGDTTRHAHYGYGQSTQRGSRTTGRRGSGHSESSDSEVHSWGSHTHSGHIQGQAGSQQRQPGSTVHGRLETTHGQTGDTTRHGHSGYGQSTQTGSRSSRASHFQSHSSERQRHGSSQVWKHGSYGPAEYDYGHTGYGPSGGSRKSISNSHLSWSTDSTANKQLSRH

lnc-FAM164A1 antisense RNA
< 0.5: all assays above

Reference: US20200237800
